The nanobody polyreactivity screen of Harvey et al. (2022)

Assay: yeast display, Sf9 membrane polyspecificity reagent, FACS + sequencing; frameworks hold sequencing errors
Procedure, shortened: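 A nanobody's polyreactivity label depends on the gate it was sorted from. Yeast display cells were stained with 10% biotinylated, detergent-solubilized Sf9 membrane reagent for 1 hour at 4 °C, enriched on streptavidin microbeads and sorted by FACS. The low and high (top ~1%) gates were set on anti-HA fluorescence for expression and streptavidin fluorescence for reagent binding.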

Sequence	polyreactivity (PSR sort gate)
QVQLVESGGGLVQAGGSLRISCAASGSIFPFYAMGWYRQAPGKERELVAAISDRGGSTYYADSVKGRFTISRDNAKNTVYLQMNSLKPEDTAVYYCAKGGEVSQGYTDEYDYWGQGTQVTVSS	low polyreactivity
QVQLVESGGGLVQAGGSLRLRCAASGIIFEYYAMGWYRQAPGKERELVAAITWNGGRTYYADSVKGRFTISRDNAKNTVYLQINSLKPEDTAVYYCAALTYYRDYWGLGTQVTVSS	high polyreactivity
QVQLVESGGGLVQAGGSLRLSCAASGITFPYYGMGWYRQAPGKERELVAAISRGGRTNYADSVKGRFTISRDNAKNTVYLQMNSLKPEDTAVYYCNTRTWSVFAKSDYWGQGTQVTVSS	high polyreactivity
QVQLVESVGGLVQAGGSLRLSCAASGFIFYYNTMGWYRQAPGKERELVAAISSGGRTYYADSVKGRFTISRDNAKNTVYLQMNSLKPEYTAVYYCNVVTYVKYGYWGQGTQVTVSS	high polyreactivity
QVQLGESGGGVVQAGVSLRLSCAASGSTFTLYAMGWYRQAPGKERELVAAINGAGSTYYADSVKGRFTISRDNAKNTVYLQMNSLKPEDTAVYYCAKDLKYGWSDYWGQGTQVTVSS	low polyreactivity
QVQLVESGGGLVQAGGSLRLSCASSGRTFNFYAMGWYRQAPGKERELVAAISHGDSTYYADSVKGRFTISRDNAKNTVYLQMNSLKPEDTAVYYCAASQKYYLLKYEYWGQGTQVTVSS	low polyreactivity
QVRLVESGGGLVQAGGSLRLSCAASGRIFVGYGLGWYRQAHGKERELVAAITSSGGSTYYADSVKGRFTISRDNAKNTVYLQMNSLKPEDTAVYYCAAERGYHGGVSGLYDYWGQGTQVTVSS	low polyreactivity
QVQLVESGGGLVQAGGSLRLSCAASGFTFGVYAMGWYRQAPGKERELVAAISRSSGRTYYADSVKGRFTISRDNAKNTVYLQMNSLKPVDTAVYYCAADLRYYGYYTRFRYYEMDYWGQGTQVTVSS	high polyreactivity
QVQLVESGGGLVQAGGSLRLICAASGFTLDQYAMGWYRPAPGKERELVAVITSGGNTYYADSVKGRFTISRDNAKNTVYLQMNSLKPEDTAVYYCAKDVSDPFYDPFEYWGQGTQVTVSS	low polyreactivity
QVHLVESGGGLVQAGGSLRLSCAASGRIFGRNAMGWYRQAPGQERELVAAITSGSSTYYADSVKGRFTISRDNAKNTVYLQMNSLKPEDTAVYYCAARTIGYHYTGGYGYWGQGTQVTVSS	high polyreactivity
QVQLVESGGGLVQAGGSLRLSCAASGRIFVSYTMGWYRQAPGKERELVAAISTDATTNYADSVKGRFTISRDNAKNTVYLQMNSLKPEDTAVYYCAADPFEYSYYTLYTSNPFYYWGQGTQVTVSS	low polyreactivity
QVQLVESGGCLVHAGGSLRLSCAASGRIFYTYAMGWYRQSPGNESELVAAISSRTVSTKYADSVKGRFTISRDNAKYTVYLQMNSLKPEDTAVYYCNVYSLRYGYDYCGQGTQVTVSS	high polyreactivity
QVQLVESGGGLVQAGGSLRLSCAASGRIFSRYTMGWYRQAPGKERELVAAISSRGGSTYYADSVKGRFTISRDNAKNTVYLQMNSLKREDTAVYYCNTPSYSGSSPYDHWGQGTQVTVSS	high polyreactivity
QVQLEETGGGLVQAGGSLRLSCAASGFTIYRYALGSYRQAPGKERELVAAISSRGGTTYYADSVKGRFTISRDNAKNTVYLQMNSLKPEDTAVYYCNAGYYLTLDYWGQGTQVTVSS	high polyreactivity
QVQLVESGGGLVQAGGSLRLSCAASGRTFSYYAMGWYRQAPGKERSLVAAISWSGGRTYYADSVKGRFTISRDNAKNTVYLQMNSLKPEDTAVYYCAARYVYPYWYGDYYWGQGTQVTVSS	low polyreactivity
QVQLQESRGGLVQAGGSLRLSCAATGTIFTDRIMGWYLQAPGKERELVAGISPGTSTNYADSVKGRFTISRDNEKNTVYLQMNSLKPEDTAVYYCAADWSTGNTLPYWGQGSQVTVSS	high polyreactivity
QVQLVESGGGLVQAGGSLRLSCAASGRTFYIYAMGWYRQAPGKERELVAAITSGTSSTYYADSVKGRFTISRDNAKNTVYLQMNSLKPEDTAVYYCAASSTGYGGSTYYYWGQGTQVTVSS	low polyreactivity
QDQHVESGGGLDQAGGSLRLSCAASGRTIRSYAMGGYRPAPRKESELVAAISSRGGNTYYADSVKGRFTISRDNAKYTVYLQMNSLKPEDTAVYYSNRVRYGVPLIVGDDYWGQGTQVTVSS	high polyreactivity
QVQLVESGGGLVQAGGSLRLSCAASGSIFYPYAMGWYRQAPGKERELVAAIRWRGGNTYYADSVKGRFTISRDNAKNTVYLQMNSLKPEDTAVYYCAADGKYLQGFGYYYWGQGTQVTVSS	high polyreactivity
QVQLVESGGGLVQAGGSLRLSCAASGRIFTSYVMGWDRQAPGKERELVAAITRSGGSTYYADSVKGRFTISRDNAKNTVYLQMNSQKPEDTAVYYCAAGVRGGGGRYRYGYWGQGTQVTVSS	high polyreactivity
QVQLVESGGGLVHAGGSLRLSCAASGRTFAYNAMGWYRQAPGKERELVAAITRSTGNTYYADSVKGRFTISRDNAKNTVYLQMNSLKPEDTAVYYCAAAYAYWRKYDYWGQGTQVTVSS	high polyreactivity
QVQLVESGGGLVQAGGSLRLSCPASGSIFGWYPMAWYRQAPGKERELVAAITFYSVNTYYQDSVKGRFTISRDNAKNNVYLQMNSLKPEDTAVYYCSARGATVVSRGKLYYWGQGTQVSVSS	low polyreactivity

Sequence	polyreactivity (PSR sort gate)
QVQLVESGGGLVQAGGSLRLSCAASGSIFYQNAMGWYRQAPGKERELVAAITSSGGSTYYADSVKGRFTISRDNAKNTVYLQMNSLKPEDTAVYYCNKYFSWRPYSYYYWGQGTQVTVSS	high polyreactivity
QVQLVESGGGLVQAGGSLRLSCAASGSTFFPYAMGWYRQAPGKERELVATINYSGGGTYYADSVKGRFTISRDNAKNTGYLQMNSLKPEDTAVYYCAKTLARFDRGYYWGQGTQVTVSS	low polyreactivity
QVQLVESGGGLVQAGGSLRLSCAASGRTFITNAMGRNRQAPGKERELVARISSDGSTYYADSVKGRFTISRDNAKNTVYLQMNSLKPEDTAVYYCNKEFLRRQLFTFWHLGGYWGQVTQVTVSS	low polyreactivity
QVQLVESGGGLVQAGGSLRLSCAASGRISDVYVMGWYRQAPGKERELVAAITWSGGDTYYADSVKGRFTISRDNAKNTVYLQMNSLNPEDTAVYYCNADTGKWGGNGWYEFDYWGQGTQVTVSS	low polyreactivity
QVQLVESGGGLVQAGGSLSLSCAASGRTFNSYAMGWYRQAPGKERELVAAISWSGGSTYYADSVKGRFTISRDNAKNTVYLQMNSLKPEDTAVFYCATERYQSSRYRSYWYPFDYWGQGTQVTVSS	low polyreactivity
QVQLVESGGGLVQAGGSLRLSCAASGFTFDIYGMGWYRQAPGNERDLVASITSRSARTYYAYSVKGRFTISRDNAKNTVYLQMNSLKPEDTAVYYCAAYYWQCTYDSRRTGWRLMNYWGQGTQVTVSS	high polyreactivity
QVQLVESGGGLVQAGGSLRLSGAASGLIFWGYTMGWYRQAPGKERVLVAAISRRGGRTYYADSVKGRFTISRDNAKNTVYLQMHSLKPEDTAVDYCNADITSSGPKSDYWGQGTQVTVSS	high polyreactivity
QVQLVESGGGLVQAGGSLRLSCDASGRTLGGYTMGWYRQAPGKERELVAAITTGGSTNYADSVKGRFTISRDNAKNTVYLQMNSLKPEDTAVYYCATDLVFDKRYWYDYWGQGTQVTVSS	low polyreactivity
QVQLVESGGGLVPAGGSLRLSCAASGRIFGWYAMGWYRQAPGKEREFVAAITVTGGSTYYADSVKGRFTISRDNAKNTVYLQMNSLKPEDTAVYYCAADRWYTRTGFDYWGQGTQVTVSS	low polyreactivity
QVQLVESGGGLVQAGGSLRLSCAASGRIFPSYAMGWYRQAPGKERELVAAISYSGASTYYADSVKGRFTFSRDNAKNTVYLQMNSLKPEDTAVYYCNAESGPKYYWGYAGTFDYWGQGTQVTVSS	low polyreactivity
QVQHVESGGGLVQAGGSLRLSCAASGRTFRKNAMGWYRQAPGKERELVAAITGSSGTTYYADSVKGRFTISRDNAKNTVYLQMNSLKPEDTAVYYCATTVGDPGRRYYYWGQGTQVTVSS	high polyreactivity
QVQLVESGGGLVQAGGSLRLSCAASGSIFASYAMGWYRQAPGKERELVAAISDGGGRTYYADSVKGRFTISRDNAKNTVYLQMNSLKPEDTAVYYCAAYAVYTYRRARGYWGQGTQVTVSS	high polyreactivity
QFQLVESGGGLVQAGGRLRLSCAASGRIFQLYTMGWYRQAPGKEREFVASISFITGRTYYADSVKGRFTISRDNAKKTVYLQMNSLKPEDTAVYYCNTRYDGGFDSWGQGTQVTVSS	high polyreactivity
QVQLVESVGGLVQAGGSLRLSCAASGFIFSQYAMGWDRKAPGKERELVAAISKSGGRTYYADSVKGRFTFSRDNAKNTVYLQMNSLKPEDTAVYYCAAVSYSSYRYDYWGQGTQVTVSS	high polyreactivity
QVQLVESGGGLVQAGGSLRLSCAASGIIFDYNAMGWYRPAPGKERELVAAISGRSGRTYYADSVKGRFTISRDNAKNTVYLQMNSLKPEDTAVYYCAARWYAGGNYWGQGTQVTVSS	high polyreactivity
QVQLVESGGGLVQAGGSLRLSCAASGSIFSSYAMGWYRQAPGKERELVAAITSGGSTYYADSVKGRFTISRDNAKNNVYLQMNSLKPEDTAVYYCAARQVRTSKLHMGYWGQGTQVTVSS	low polyreactivity
QVQLVESGGGLVQAGGSLRLSCAASGRTFFRYAMGWYRQAPGKERELVASISGGITNYADSVKGRFTISRDNAQNTVYLQMNSLKPEDTAVYYCAADDYPYSYSSQFQYTGYEYWGQGTQVTVSS	low polyreactivity
QVQLVESGGGLVQAGGSLRLSCAASGIIFKYYAMGWYRQAPGKERELVAAISRSSGSTYYADSVKGRFTISRDNAKKTVYLQMNSLKPEDTAVYYCAASGWPQKYDYWGQGTQVTVSS	high polyreactivity
QVQLVESGGGLVQAGGSLRLSCAASGFIFVFYAMGWYIQAPGKERELVAAITWSGGGTYYADSVKGRFTISRDNAKNTVYLQMNSLKPEDTAVYYCNTDASPYLFDYWGQGTQVTVSS	low polyreactivity
QVQLVESGGGLVQAGGSLRLSCAASGGIFDPYAMGWYRQAPGKERELVAAITNSGGSTYYADSVKGRFTISRDNAKNTVYLQMNSLKPEDTAVYYCAAEGLYVGYDYWGQGTQVTVSS	low polyreactivity
QVQLVESGGGLVQAGGSLRLSCAASGSTFVNNAMGWYRQAPGKERELGASITVGGSTYYADSVKGRFTISRDNAKNTVYLQMNSLKPEDTAVYYCAAADYRFWSRYDYWGQGTQVTVSS	low polyreactivity
